Test results published in patent US20110165265A1, “TRAIL VARIANTS FOR TREATING CANCER” (FUNDACIÓ GENÒMICA (CRG), priority 2007, published 2011).

Molecular target: death receptor 5 (DR5) on the cell surface (human) (UniProt O14763)
Experiment: cell-based or functional assay

wild-type TRAIL (recombinant human soluble TRAIL, amino acids 114-281) (from UniProt P50591 114-281) (ligand)
TRAIL-mediated death of Colo205 cells in the presence of neutralizing anti-DR5 antibody: 3 fold
incubation time of Colo205 cells with 30 ng/ml ligand needed for a comparable level of pro-caspase-8 processing (Western blot): 60 min
